Laboratory results from US20240287154A1, “MC3R AGONIST PEPTIDES” (The Regents of the University of Michigan, priority 2021, published 2024).
Non-standard residues stand in square brackets, D forms with d. dNle = CCCC[C@@H](N)C(=O)O; Nle = CCCC[C@H](N)C(=O)O; dNMeA = CN[C@H](C)C(=O)O; R1 = not defined here

B1: CTX-1110 (peptide)
peptide: Ac-SGHFR[dW]D-NH2
B2: CTX-1185 (peptide)
peptide: Ac-[Nle]GHFR[dW]DRFG-OH
SMILES: CCCC[C@H](NC(C)=O)C(=O)NCC(=O)N[C@@H](Cc1c[nH]cn1)C(=O)N[C@@H](Cc1ccccc1)C(=O)N[C@@H](CCCNC(=N)N)C(=O)N[C@H](Cc1c[nH]c2ccccc12)C(=O)N[C@@H](CC(=O)O)C(=O)N[C@@H](CCCNC(=N)N)C(=O)N[C@@H](Cc1ccccc1)C(=O)NCC(=O)O
B3: CTX-1107 (peptide)
peptide: H-YV[Nle]GH[dF]R[dW]D-NH2
SMILES: CCCC[C@H](NC(=O)[C@@H](NC(=O)[C@@H](N)Cc1ccc(O)cc1)C(C)C)C(=O)NCC(=O)N[C@@H](Cc1c[nH]cn1)C(=O)N[C@H](Cc1ccccc1)C(=O)N[C@@H](CCCNC(=N)N)C(=O)N[C@H](Cc1c[nH]c2ccccc12)C(=O)N[C@@H](CC(=O)O)C(N)=O
B4: CTX-1149 (R1, SEQ ID NO 66) (peptide)
peptide: R1-V[Nle][dA]HFR[dW]DRFG-OH
modifications: reading uncertain
B5: CTX-1121 (peptide)
peptide: Ac-V[Nle][dA]HFR[dW]DRFG-OH
SMILES: CCCC[C@H](NC(=O)[C@@H](NC(C)=O)C(C)C)C(=O)N[C@H](C)C(=O)N[C@@H](Cc1c[nH]cn1)C(=O)N[C@@H](Cc1ccccc1)C(=O)N[C@@H](CCCNC(=N)N)C(=O)N[C@H](Cc1c[nH]c2ccccc12)C(=O)N[C@@H](CC(=O)O)C(=O)N[C@@H](CCCNC(=N)N)C(=O)N[C@@H](Cc1ccccc1)C(=O)NCC(=O)O
B6: CTX-1161 (peptide)
peptide: Ac-[Nle][dA]HFR[dW]DR[dF]K(R1)-OH
modifications: reading uncertain
B7: CTX-1184 (peptide)
peptide: Ac-[Nle][dP]HFR[dW]DRFG-OH
SMILES: CCCC[C@H](NC(C)=O)C(=O)N1CCC[C@@H]1C(=O)N[C@@H](Cc1c[nH]cn1)C(=O)N[C@@H](Cc1ccccc1)C(=O)N[C@@H](CCCNC(=N)N)C(=O)N[C@H](Cc1c[nH]c2ccccc12)C(=O)N[C@@H](CC(=O)O)C(=O)N[C@@H](CCCNC(=N)N)C(=O)N[C@@H](Cc1ccccc1)C(=O)NCC(=O)O
B8: CTX-1125 (peptide)
peptide: YVXAHFRWDRFG
modifications: D-Tyr at 1; Nle at 3; D-Ala at 4; D-Trp at 8
B9: CTX-1146 (peptide)
peptide: Ac-[Nle][dA]HFR[dW]D[dR]FG-OH
SMILES: CCCC[C@H](NC(C)=O)C(=O)N[C@H](C)C(=O)N[C@@H](Cc1c[nH]cn1)C(=O)N[C@@H](Cc1ccccc1)C(=O)N[C@@H](CCCNC(=N)N)C(=O)N[C@H](Cc1c[nH]c2ccccc12)C(=O)N[C@@H](CC(=O)O)C(=O)N[C@H](CCCNC(=N)N)C(=O)N[C@@H](Cc1ccccc1)C(=O)NCC(=O)O
B10: CTX-1104 (peptide)
peptide: YVXAHFRWDRFG
modifications: Nle at 3; D-Ala at 4; D-Phe at 6; D-Trp at 8
B11: CTX-1106 (peptide)
peptide: H-YVE[dA]H[dF]R[dW]DRFG-OH
SMILES: CC(C)[C@H](NC(=O)[C@@H](N)Cc1ccc(O)cc1)C(=O)N[C@@H](CCC(=O)O)C(=O)N[C@H](C)C(=O)N[C@@H](Cc1c[nH]cn1)C(=O)N[C@H](Cc1ccccc1)C(=O)N[C@@H](CCCNC(=N)N)C(=O)N[C@H](Cc1c[nH]c2ccccc12)C(=O)N[C@@H](CC(=O)O)C(=O)N[C@@H](CCCNC(=N)N)C(=O)N[C@@H](Cc1ccccc1)C(=O)NCC(=O)O
B12: CTX-1111 (peptide)
peptide: Ac-SGH[dF]R[dW]D-NH2
SMILES: CC(=O)N[C@@H](CO)C(=O)NCC(=O)N[C@@H](Cc1c[nH]cn1)C(=O)N[C@H](Cc1ccccc1)C(=O)N[C@@H](CCCNC(=N)N)C(=O)N[C@H](Cc1c[nH]c2ccccc12)C(=O)N[C@@H](CC(=O)O)C(N)=O
B13: CTX-1133 (peptide)
peptide: YVXAHFRWDRFG
modifications: Nle at 3; D-Trp at 8
B14: CTX-1119 (peptide)
peptide: H-YV[Nle][dA]HFR[dW]DRF-NH2
SMILES: CCCC[C@H](NC(=O)[C@@H](NC(=O)[C@@H](N)Cc1ccc(O)cc1)C(C)C)C(=O)N[C@H](C)C(=O)N[C@@H](Cc1c[nH]cn1)C(=O)N[C@@H](Cc1ccccc1)C(=O)N[C@@H](CCCNC(=N)N)C(=O)N[C@H](Cc1c[nH]c2ccccc12)C(=O)N[C@@H](CC(=O)O)C(=O)N[C@@H](CCCNC(=N)N)C(=O)N[C@@H](Cc1ccccc1)C(N)=O
B15: CTX-1123 (peptide)
peptide: Ac-[Nle][dA]HFR[dW]D-NH2
SMILES: CCCC[C@H](NC(C)=O)C(=O)N[C@H](C)C(=O)N[C@@H](Cc1c[nH]cn1)C(=O)N[C@@H](Cc1ccccc1)C(=O)N[C@@H](CCCNC(=N)N)C(=O)N[C@H](Cc1c[nH]c2ccccc12)C(=O)N[C@@H](CC(=O)O)C(N)=O
B16: CTX-1181 (peptide)
peptide: Ac-[Nle][dV]HFR[dW]DRFG-OH
SMILES: CCCC[C@H](NC(C)=O)C(=O)N[C@@H](C(=O)N[C@@H](Cc1c[nH]cn1)C(=O)N[C@@H](Cc1ccccc1)C(=O)N[C@@H](CCCNC(=N)N)C(=O)N[C@H](Cc1c[nH]c2ccccc12)C(=O)N[C@@H](CC(=O)O)C(=O)N[C@@H](CCCNC(=N)N)C(=O)N[C@@H](Cc1ccccc1)C(=O)NCC(=O)O)C(C)C
B17: CTX-1124 (peptide)
peptide: YVXAHFRWDRFG
modifications: NMe-Tyr at 1; Nle at 3; D-Ala at 4; D-Trp at 8
B18: CTX-1183 (peptide)
peptide: Ac-[Nle][dNMeA]HFR[dW]DRFG-OH
SMILES: CCCC[C@H](NC(C)=O)C(=O)N(C)[C@H](C)C(=O)N[C@@H](Cc1c[nH]cn1)C(=O)N[C@@H](Cc1ccccc1)C(=O)N[C@@H](CCCNC(=N)N)C(=O)N[C@H](Cc1c[nH]c2ccccc12)C(=O)N[C@@H](CC(=O)O)C(=O)N[C@@H](CCCNC(=N)N)C(=O)N[C@@H](Cc1ccccc1)C(=O)NCC(=O)O
B19: CTX-1136 (peptide)
peptide: YVXFHFRWDRFG
modifications: Nle at 3; D-Phe at 4; D-Trp at 8
B20: CTX-1109 (peptide)
peptide: H-YV[Nle][dA]H[dF]R[dW]D-NH2
SMILES: CCCC[C@H](NC(=O)[C@@H](NC(=O)[C@@H](N)Cc1ccc(O)cc1)C(C)C)C(=O)N[C@H](C)C(=O)N[C@@H](Cc1c[nH]cn1)C(=O)N[C@H](Cc1ccccc1)C(=O)N[C@@H](CCCNC(=N)N)C(=O)N[C@H](Cc1c[nH]c2ccccc12)C(=O)N[C@@H](CC(=O)O)C(N)=O
B21: CTX-1118 (peptide)
peptide: YVXAHFRWDRFG
modifications: Nle at 3; D-Ala at 4; D-Trp at 8; C-terminal amide
B22: CTX-1112 (peptide)
peptide: Ac-TGHFR[dW]D-NH2
SMILES: CC(=O)N[C@H](C(=O)NCC(=O)N[C@@H](Cc1c[nH]cn1)C(=O)N[C@@H](Cc1ccccc1)C(=O)N[C@@H](CCCNC(=N)N)C(=O)N[C@H](Cc1c[nH]c2ccccc12)C(=O)N[C@@H](CC(=O)O)C(N)=O)[C@@H](C)O
B23: CTX-1113 (peptide)
peptide: Ac-TGH[dF]R[dW]D-NH2
SMILES: CC(=O)N[C@H](C(=O)NCC(=O)N[C@@H](Cc1c[nH]cn1)C(=O)N[C@H](Cc1ccccc1)C(=O)N[C@@H](CCCNC(=N)N)C(=O)N[C@H](Cc1c[nH]c2ccccc12)C(=O)N[C@@H](CC(=O)O)C(N)=O)[C@@H](C)O
B24: CTX-1182 (peptide)
peptide: Ac-[Nle][dNle]HFR[dW]DRFG-OH
SMILES: CCCC[C@H](NC(C)=O)C(=O)N[C@H](CCCC)C(=O)N[C@@H](Cc1c[nH]cn1)C(=O)N[C@@H](Cc1ccccc1)C(=O)N[C@@H](CCCNC(=N)N)C(=O)N[C@H](Cc1c[nH]c2ccccc12)C(=O)N[C@@H](CC(=O)O)C(=O)N[C@@H](CCCNC(=N)N)C(=O)N[C@@H](Cc1ccccc1)C(=O)NCC(=O)O

Each binder was assayed against human MC3R (human, UniProt P41968 1-323) (assay: cell-based or functional assay).
Chain of human MC3R (P41968 whole entry): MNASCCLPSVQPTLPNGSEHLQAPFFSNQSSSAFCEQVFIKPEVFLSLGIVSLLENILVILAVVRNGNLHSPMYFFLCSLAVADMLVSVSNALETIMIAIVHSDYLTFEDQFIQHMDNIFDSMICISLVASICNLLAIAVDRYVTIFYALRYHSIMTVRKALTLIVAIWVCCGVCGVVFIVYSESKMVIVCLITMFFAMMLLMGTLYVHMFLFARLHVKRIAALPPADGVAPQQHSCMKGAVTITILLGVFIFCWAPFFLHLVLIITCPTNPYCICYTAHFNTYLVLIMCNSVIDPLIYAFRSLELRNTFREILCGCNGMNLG

Going from B1 to B2, the “MC3R cAMP (EC50)” value falls from 7.4 µM to 0.0027 µM (2700-fold).

Going from B3 to B4, the “MC3R cAMP (EC50)” value rises from 0.0044 µM to 0.71 µM (160-fold).

Going from B5 to B6, the “MC3R cAMP (EC50)” value rises from 0.0031 µM to 0.952 µM (310-fold).

First: B7
Second: B8
The “MC3R cAMP (EC50)” value of the first is 360-fold higher: 0.607 µM for the first, 0.0017 µM for the second.

Going from B9 to B10, the “MC3R cAMP (EC50)” value falls from 0.17 µM to 0.0035 µM (49-fold).

First: B11
Second: B12
The “MC3R cAMP (EC50)” value of the first is 2900-fold lower: 0.0058 µM for the first, 17.1 µM for the second.

B13 and B14 are within 1.5-fold of each other in “MC3R cAMP (EC50)” value: 0.0014 µM for the first, 0.0019 µM for the second.

Going from B15 to B16, the “MC3R cAMP (EC50)” value falls from 0.213 µM to 0.102 µM (2.1-fold).

Compared with B17, B18 is 42-fold higher in “MC3R cAMP (EC50)” value: 0.0017 µM for the first, 0.0716 µM for the second.

First: B19
Second: B20
The “MC3R cAMP (EC50)” value of the first is 6.9-fold lower: 0.0019 µM for the first, 0.0131 µM for the second.

Compared with B21, B22 is 3400-fold higher in “MC3R cAMP (EC50)” value: 0.0012 µM for the first, 4.09 µM for the second.

Compared with B23, B24 is 300-fold lower in “MC3R cAMP (EC50)” value: 4.43 µM for the first, 0.0146 µM for the second.

Compared with B2, B3 is lower in “MC3R selectivity (relative to MC4R)” value: 2310 for the first, 2.4 for the second.

Compared with B4, B5 is lower in “MC3R selectivity (relative to MC4R)” value: 6800 for the first, 2120 for the second.

First: B6
Second: B7
The “MC3R selectivity (relative to MC4R)” value of the first is lower: 22 for the first, 28 for the second.

First: B8
Second: B10
The “MC3R selectivity (relative to MC4R)” value of the first is higher: 747 for the first, 27 for the second.

Going from B11 to B12, the “MC3R selectivity (relative to MC4R)” value falls from 120 to 0.1.

First: B13
Second: B14
The “MC3R selectivity (relative to MC4R)” value of the first is lower: 7.4 for the first, 24 for the second.

Compared with B15, B16 is higher in “MC3R selectivity (relative to MC4R)” value: 28 for the first, 718 for the second.

Compared with B17, B18 is higher in “MC3R selectivity (relative to MC4R)” value: 69 for the first, 515 for the second.

Compared with B19, B20 is lower in “MC3R selectivity (relative to MC4R)” value: 37 for the first, 10.6 for the second.

First: B21
Second: B22
The “MC3R selectivity (relative to MC4R)” value of the first is higher: 59 for the first, 8.6 for the second.

First: B23
Second: B24
The “MC3R selectivity (relative to MC4R)” value of the first is lower: 0.4 for the first, 1410 for the second.
